Residue numbers refer to the chain shown, from its start. Names and notes keep the numbering of the source. Values belong to the binder of their own block, whether it stands above or below them.
Experiments:
[1] = biological target: T1, human FcγRI extracellular domain (human, UniProt P12314 16-292); assay: SPR at 25 C, antibody captured on Protein A, FcγR ECD analyte
T1 construct: extracellular domain; also called CD64
Protocol: (§1) Biacore® T100 instrument and Biacore® 3000 (GE Healthcare, Piscataway, NJ), Biacore® reagents and Scrubber2 Biacore® Evaluation Software (Biologics 2008) are used for the SPR analysis of antibody binding. A CM5 chip (Biacore® P/N BR-1006-68) is prepared using the manufacturer's EDC/NHS amine coupling method (Biacore® P/N BR-1000-50). Briefly, the surfaces of all 4 FCs are activated by injecting a 1:1 mixture of EDC/NHS for 7 minutes at 10 μL/minute. Protein A (Calbiochem P/N 539202) is diluted to 100 μg/mL in 10 mM acetate, pH 4.5 buffer and immobilized for approximately 400 RU onto all 4 flow cells by 7 minute injection at a flow rate of 10 μL/minute. Un-reacted sites are blocked with a 7-minute injection of ethanolamine at 10 μL/minute. Injections of 2×10 μL of glycine pH 1.5 are used to remove any non-covalently associated protein.
Reference-subtracted data is collected as FC2-FC1, FC3-FC1, and FC4-FC1. The measurements are obtained at 25° C. The affinity (KD) is calculated using either steady state equilibrium analysis with the Scrubber 2 Biacore® Evaluation Software or a “1:1 (Langmuir) binding” model in BIA Evaluation.

[2] = biological target: T2, human CD200R expressed on cells (human, UniProt Q8TD46 25-348); assay: cell-based or functional assay
T2 chain: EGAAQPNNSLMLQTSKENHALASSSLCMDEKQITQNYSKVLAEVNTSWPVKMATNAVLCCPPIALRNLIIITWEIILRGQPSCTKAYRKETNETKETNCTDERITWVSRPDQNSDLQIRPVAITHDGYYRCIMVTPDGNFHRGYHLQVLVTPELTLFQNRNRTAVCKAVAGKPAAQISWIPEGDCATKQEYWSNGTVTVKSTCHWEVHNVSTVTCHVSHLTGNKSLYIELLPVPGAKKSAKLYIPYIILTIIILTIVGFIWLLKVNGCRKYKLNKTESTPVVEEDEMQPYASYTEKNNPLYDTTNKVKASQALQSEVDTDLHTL

[3] = biological target: T3, cynomolgus monkey CD200R (purified soluble receptor, SPR analyte) (cynomolgus monkey, UniProt Q8TD46 25-265 (human entry)); assay: SPR at 37 C, antibody captured on Protein A, receptor analyte, 1:1 model; n=3
T3 construct: Purified by IMAC and size exclusion chromatography; also called cyno CD200R
T3 chain: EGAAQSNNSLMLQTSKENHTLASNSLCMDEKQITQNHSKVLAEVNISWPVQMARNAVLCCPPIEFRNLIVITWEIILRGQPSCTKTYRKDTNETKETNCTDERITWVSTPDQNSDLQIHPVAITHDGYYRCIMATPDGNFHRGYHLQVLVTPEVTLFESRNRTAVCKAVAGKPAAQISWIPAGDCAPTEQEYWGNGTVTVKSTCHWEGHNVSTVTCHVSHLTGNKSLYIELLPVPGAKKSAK

[4] = biological target: T4, human CD200R (purified soluble receptor, SPR analyte) (human, UniProt Q8TD46 29-265, limits assumed); assay: as above
T4 construct: Purified by IMAC and size exclusion chromatography; also called hCD200R; human CD200 receptor
T4 chain: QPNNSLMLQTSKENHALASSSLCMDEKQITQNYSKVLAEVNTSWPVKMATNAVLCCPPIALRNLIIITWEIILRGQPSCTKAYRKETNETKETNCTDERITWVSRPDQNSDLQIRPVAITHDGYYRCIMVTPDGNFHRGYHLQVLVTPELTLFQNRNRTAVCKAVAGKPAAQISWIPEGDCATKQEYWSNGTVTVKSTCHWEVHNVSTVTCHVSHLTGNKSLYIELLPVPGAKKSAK

[5] = biological target: T5, human FcγRIIA_131H extracellular domain (human, UniProt P12318 34-217); assay: SPR at 25 C, antibody captured on Protein A, FcγR ECD analyte, steady state
T5 construct: extracellular domain; also called CD32a
T5 sequence (looked up): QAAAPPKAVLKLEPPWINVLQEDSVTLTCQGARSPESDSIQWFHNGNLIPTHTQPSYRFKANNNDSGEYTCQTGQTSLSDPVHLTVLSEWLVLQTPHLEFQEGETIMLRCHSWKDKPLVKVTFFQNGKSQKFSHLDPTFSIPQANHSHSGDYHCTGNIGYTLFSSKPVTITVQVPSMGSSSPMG
Protocol: as §1
(§2) For FcγRIIa, FcγRIIb, and FcγRIIIa binding, antibodies are diluted to […] in running buffer, and approximately 500 RU of each variant is captured in flow cells 2 through 4 (RUcaptured). FC1 is the reference flow cell. Fcγ receptor ECDs are diluted to 10 μM in running buffer and then 2 fold serially diluted in running buffer to 39 nM. Duplicate injections of each concentration are injected over all FCs at 40 μL/minute for 60 seconds followed by a 120 second dissociation phase. Regeneration is performed by injecting 15 μL of 10 mM glycine pH 1.5 at 30 μL/min over all FCs.
(§3) Reference-subtracted data is collected as FC2-FC1, FC3-FC1, and FC4-FC1. The measurements are obtained at 25° C. The affinity (KD) is calculated using the steady state equilibrium analysis with the Scrubber 2 Biacore® Evaluation Software.

[6] = biological target: T6, human FcγRIIIA_158V extracellular domain (human, UniProt P08637 17-208); assay: as above
T6 construct: extracellular domain; Allotype with Val at 158 (numbering as in the label); also called CD16a
T6 sequence (P08637 17-208 F176V): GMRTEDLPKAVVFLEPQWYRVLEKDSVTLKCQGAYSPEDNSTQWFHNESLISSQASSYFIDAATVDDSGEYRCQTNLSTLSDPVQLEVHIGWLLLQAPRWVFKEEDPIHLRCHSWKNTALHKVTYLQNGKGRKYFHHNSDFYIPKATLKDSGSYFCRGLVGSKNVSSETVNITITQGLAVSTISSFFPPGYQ
Protocol: as §1, §2, §3

[7] = biological target: T7, human FcγRIIb extracellular domain (human, UniProt P31994 43-217); assay: as above
T7 construct: extracellular domain; also called CD32b
T7 sequence (looked up): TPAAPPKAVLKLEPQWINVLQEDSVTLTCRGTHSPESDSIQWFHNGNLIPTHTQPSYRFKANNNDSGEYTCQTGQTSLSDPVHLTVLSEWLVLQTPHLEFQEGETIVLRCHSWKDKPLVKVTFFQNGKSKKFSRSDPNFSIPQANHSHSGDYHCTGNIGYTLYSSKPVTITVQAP
Protocol: as §1, §2, §3

[8] = biological target: T8, human FcγRIIA_131R extracellular domain (human, UniProt P12318 34-217); assay: as above
T8 construct: extracellular domain; also called CD32a
T8 sequence (looked up): T5 sequence (looked up) with H134R
Protocol: as §1, §2, §3

[9] = biological target: T9, human FcγRIIIA_158F extracellular domain (human, UniProt P08637 17-208); assay: as above
T9 construct: extracellular domain; Allotype with Phe at 158 (numbering as in the label); also called CD16a
T9 sequence (P08637 17-208): as the sequence (P08637 17-208 F176V) above, with V160F counted along it
Protocol: as §1, §2, §3

T1 sequence (P12314 16-292): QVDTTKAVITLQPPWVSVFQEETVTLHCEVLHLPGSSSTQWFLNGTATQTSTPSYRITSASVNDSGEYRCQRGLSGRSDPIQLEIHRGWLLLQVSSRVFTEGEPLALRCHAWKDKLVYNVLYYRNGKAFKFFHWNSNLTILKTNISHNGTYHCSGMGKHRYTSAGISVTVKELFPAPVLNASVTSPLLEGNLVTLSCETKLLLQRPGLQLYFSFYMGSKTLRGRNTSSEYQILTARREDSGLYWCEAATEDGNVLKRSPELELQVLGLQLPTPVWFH

Kd [1]: 0.369 nM | Kd [5]: 3900 nM | Kd [6]: 4300 nM | Kd [7]: 2200 nM | Kd [8]: 1700 nM
B1: Antibody I-4P (antibody, human IgG4 S228P, kappa)
heavy: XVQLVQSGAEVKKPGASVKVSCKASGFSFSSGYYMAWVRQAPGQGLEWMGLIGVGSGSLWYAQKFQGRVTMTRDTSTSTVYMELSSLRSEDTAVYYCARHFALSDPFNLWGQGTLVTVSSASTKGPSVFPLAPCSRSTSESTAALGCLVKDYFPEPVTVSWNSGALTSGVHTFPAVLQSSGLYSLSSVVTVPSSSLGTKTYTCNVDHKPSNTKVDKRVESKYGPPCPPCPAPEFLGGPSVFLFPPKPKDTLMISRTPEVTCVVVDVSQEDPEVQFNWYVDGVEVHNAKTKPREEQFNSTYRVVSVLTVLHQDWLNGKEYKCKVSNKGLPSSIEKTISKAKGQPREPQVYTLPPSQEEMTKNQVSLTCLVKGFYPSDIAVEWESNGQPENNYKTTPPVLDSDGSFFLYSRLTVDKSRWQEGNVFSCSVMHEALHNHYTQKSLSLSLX
light: EIVLTQSPDFQSVTPKEKVTITCQASESIDSYLLWYQQKPDQSPKLLIKQASTLASGVPSRFSGSGSGTDFTLTINSLEAEDAATYYCQNYYDISSNDFGGGTKVEIKRTVAAPSVFIFPPSDEQLKSGTASVVCLLNNFYPREAKVQWKVDNALQSGNSQESVTEQDSKDSTYSLSSTLTLSKADYEKHKVYACEVTHQGLSSPVTKSFNRGEC
modifications: Xaa at position 1 is either glutamine or pyroglutamic acid; Xaa at position 446 is either glycine or absent
notes: Humanized IgG4P (S228P), kappa; also called IgG4SP; Antibody I-4P-AF647 (AF647-labelled form used as stain)
IC50 of inhibition of IC-stimulated IL-8 release, human CD200R-expressing U937 cells [2]: 0.07 µg/mL | IC50 of inhibition of immune-complex induced IL-8 secretion, U937 cells expressing human CD200R (average of 3 experiments) [2]: 0.2 µg/mL | Kd [3]: 2.3 nM | Kd [4]: 5.6 nM

Kd [1]: 0.0489 nM | Kd [5]: 500 nM | Kd [9]: 900 nM | Kd [6]: 200 nM | Kd [7]: 2800 nM | Kd [8]: 600 nM
B2: Antibody I-IgG1 (antibody)
heavy: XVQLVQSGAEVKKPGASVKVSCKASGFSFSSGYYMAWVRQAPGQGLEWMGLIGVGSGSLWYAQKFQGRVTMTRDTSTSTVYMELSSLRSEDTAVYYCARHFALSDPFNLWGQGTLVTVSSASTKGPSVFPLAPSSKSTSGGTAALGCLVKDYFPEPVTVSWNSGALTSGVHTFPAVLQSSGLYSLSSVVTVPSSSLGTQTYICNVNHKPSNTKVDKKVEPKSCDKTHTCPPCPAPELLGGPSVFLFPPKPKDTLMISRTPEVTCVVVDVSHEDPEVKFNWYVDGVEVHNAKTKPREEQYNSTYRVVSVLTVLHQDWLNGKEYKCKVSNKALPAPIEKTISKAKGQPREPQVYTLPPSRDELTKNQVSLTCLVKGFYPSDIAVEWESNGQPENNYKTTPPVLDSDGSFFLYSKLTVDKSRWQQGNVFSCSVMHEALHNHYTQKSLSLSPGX
light: B1 light
modifications: Xaa at position 1 is either glutamine or pyroglutamic acid; Xaa at position 450 is either lysine or absent
notes: Same HCVR, LCVR and LC as Antibody I-4P; IgG1 heavy chain
